How the values were obtained:
[1] = biological target: Recombinant human his-tagged IGF 1R extracellular domain protein (human) (UniProt P08069); experiment: SPR, captured IgG, IGF-1R ECD-his analyte, dissociation pH 6
[2] = biological target: Recombinant human his-tagged IGF 1R extracellular domain protein (human) (UniProt P08069); experiment: SPR, captured IgG, IGF-1R ECD-his analyte, dissociation pH 7.4
[3] = biological target: Recombinant human his-tagged IGF 1R extracellular domain protein (human) (UniProt P08069); experiment: SPR, captured IgG, IGF-1R ECD-his analyte, dissociation pH 6; dissociation at pH 6
[4] = biological target: Recombinant human his-tagged IGF 1R extracellular domain protein (human) (UniProt P08069); experiment: SPR, captured IgG, IGF-1R ECD-his analyte, dissociation pH 7.4; dissociation at pH 7.4

Binder | Kd [1] | kon [1] | Kd [2] | koff [2] | kon [2] | koff [3] | koff [1] | koff [4]
VRDN-02500 (antibody, human IgG1, kappa, V domains shown) VH: EVQLVQSGGGLVKPGGSLRLSCAASGFTFSSFAMHWVRQAPGKGLEWISVIDTRGATYYADSVKGRFTISRDNAKNSLYLQMNSLRAEDTAVYYCARLGNFYYGMDVWGQGTTVTVSS VL: EIVLTQSPGTLSVSPGERATLSCRASQSIGSSLHWYQQKPGQAPRLLIKYASQSLSGIPDRFSGSGSGTDFTLTISRLEPEDFAVYYCHQSSRLPHTFGQGTKVEIKR | < 0.0161 nM | 47500 M⁻¹ s⁻¹ | 0.626 nM | 3.89e-05 s⁻¹ | 62100 M⁻¹ s⁻¹ | < 1e-06 s⁻¹ |  | 
VRDN-02526 (antibody, V domains shown) VH: EVQLVQSGGGLVKPGGSLRLSCAASGFTFSSFAMHWVRQAPGKGLEWISVIDTRGATYYADSVKGRFTISRDNAKNSLYLQMNSLRAEDTAVYYCARLGNFYYGMHVWGQGTTVTVSS VL: EIVLTQSPGTLSVSPGERATLSCRASQSIGSSLHWYQQKPGQAPRLLIKYASQSLSGIPDRFSGSGSGTDFTLTISRLEPEDFAVYYCHQSSRLPHTFGQGTKVEIK | < 0.0273 nM | 36600 M⁻¹ s⁻¹ | 0.00543 nM | 1e-06 s⁻¹ | 184000 M⁻¹ s⁻¹ | < 1e-06 s⁻¹ |  | 
VRDN-02514 (antibody, V domains shown) VH: EVQLVQSGGGLVKPGGSLRLSCAASGFTFSSFAMHWVRQAPGKGLEWISVIDTRGHTYYADSVKGRFTISRDNAKNSLYLQMNSLRAEDTAVYYCARLGNFYYGMDVWGQGTTVTVSS VL: EIVLTQSPGTLSVSPGERATLSCRASQSIGSSLHWYQQKPGQAPRLLIKYASQSLSGIPDRFSGSGSGTDFTLTISRLEPEDFAVYYCHQSSRLPHTFGQGTKVEIK | 0.0283 nM | 35300 M⁻¹ s⁻¹ | < 0.00926 nM |  | 108000 M⁻¹ s⁻¹ |  | 1e-06 s⁻¹ | < 1e-06 s⁻¹
VRDN-02515 (antibody, V domains shown) VH: EVQLVQSGGGLVKPGGSLRLSCAASGFTFSSFAMHWVRQAPGKGLEWISVIDTRGAHYYADSVKGRFTISRDNAKNSLYLQMNSLRAEDTAVYYCARLGNFYYGMDVWGQGTTVTVSS VL: EIVLTQSPGTLSVSPGERATLSCRASQSIGSSLHWYQQKPGQAPRLLIKYASQSLSGIPDRFSGSGSGTDFTLTISRLEPEDFAVYYCHQSSRLPHTFGQGTKVEIK | 0.692 nM | 100000 M⁻¹ s⁻¹ | 0.571 nM | 5.82e-05 s⁻¹ | 102000 M⁻¹ s⁻¹ |  | 6.92e-05 s⁻¹ | 
VRDN-02507 (antibody, V domains shown) VH: EVQLVQSGGGLVKPGGSLRLSCAASGFTFSSHAMHWVRQAPGKGLEWISVIDTRGATYYADSVKGRFTISRDNAKNSLYLQMNSLRAEDTAVYYCARLGNFYYGMDVWGQGTTVTVSS VL: EIVLTQSPGTLSVSPGERATLSCRASQSIGSSLHWYQQKPGQAPRLLIKYASQSLSGIPDRFSGSGSGTDFTLTISRLEPEDFAVYYCHQSSRLPHTFGQGTKVEIK | 0.0469 nM | 21300 M⁻¹ s⁻¹ | 0.1 nM | 1.99e-05 s⁻¹ | 199000 M⁻¹ s⁻¹ |  | 1e-06 s⁻¹ | 
VRDN-02567 (antibody, V domains shown) VH: EVQLVQSGGGLVKPGGSLRLSCAASGFTFSSFAMHWVRQAPGKGLEWISVIDTRGATYYADSVKGRFTISRDNAKNSLYLQMNSLRAEDTAVYYCARLGNFYYHHDVWGQGTTVTVSS VL: EIVLTQSPGTLSVSPGERATLSCRASQSIGSSLHWYQQKPGQAPRLLIKYASQSLSGIPDRFSGSGSGTDFTLTISRLEPEDFAVYYCHQSSRLPHTFGQGTKVEIK | 5.41 nM | 105000 M⁻¹ s⁻¹ | 2.77 nM | 0.000473 s⁻¹ | 171000 M⁻¹ s⁻¹ |  | 0.000569 s⁻¹ | 
VRDN-02510 (antibody, V domains shown) VH: EVQLVQSGGGLVKPGGSLRLSCAASGFTFSSFAMHWVRQAPGKGLEWISVIHTRGATYYADSVKGRFTISRDNAKNSLYLQMNSLRAEDTAVYYCARLGNFYYGMDVWGQGTTVTVSS VL: EIVLTQSPGTLSVSPGERATLSCRASQSIGSSLHWYQQKPGQAPRLLIKYASQSLSGIPDRFSGSGSGTDFTLTISRLEPEDFAVYYCHQSSRLPHTFGQGTKVEIK | 3.84 nM | 30200 M⁻¹ s⁻¹ | 0.214 nM | 5.3e-05 s⁻¹ | 248000 M⁻¹ s⁻¹ |  | 0.000116 s⁻¹ | 
VRDN-02509 (antibody, V domains shown) VH: EVQLVQSGGGLVKPGGSLRLSCAASGFTFSSFAHHWVRQAPGKGLEWISVIDTRGATYYADSVKGRFTISRDNAKNSLYLQMNSLRAEDTAVYYCARLGNFYYGMDVWGQGTTVTVSS VL: EIVLTQSPGTLSVSPGERATLSCRASQSIGSSLHWYQQKPGQAPRLLIKYASQSLSGIPDRFSGSGSGTDFTLTISRLEPEDFAVYYCHQSSRLPHTFGQGTKVEIK | 0.0285 nM | 35100 M⁻¹ s⁻¹ | 0.285 nM | 4.81e-05 s⁻¹ | 169000 M⁻¹ s⁻¹ |  | 1e-06 s⁻¹ | 
VRDN-02513 (antibody, V domains shown) VH: EVQLVQSGGGLVKPGGSLRLSCAASGFTFSSFAMHWVRQAPGKGLEWISVIDTRHATYYADSVKGRFTISRDNAKNSLYLQMNSLRAEDTAVYYCARLGNFYYGMDVWGQGTTVTVSS VL: EIVLTQSPGTLSVSPGERATLSCRASQSIGSSLHWYQQKPGQAPRLLIKYASQSLSGIPDRFSGSGSGTDFTLTISRLEPEDFAVYYCHQSSRLPHTFGQGTKVEIK | 0.0322 nM | 31100 M⁻¹ s⁻¹ | 1.06 nM | 5.09e-05 s⁻¹ | 48200 M⁻¹ s⁻¹ |  | 1e-06 s⁻¹ | 
VRDN-02508 (antibody, V domains shown) VH: EVQLVQSGGGLVKPGGSLRLSCAASGFTFSSFHMHWVRQAPGKGLEWISVIDTRGATYYADSVKGRFTISRDNAKNSLYLQMNSLRAEDTAVYYCARLGNFYYGMDVWGQGTTVTVSS VL: EIVLTQSPGTLSVSPGERATLSCRASQSIGSSLHWYQQKPGQAPRLLIKYASQSLSGIPDRFSGSGSGTDFTLTISRLEPEDFAVYYCHQSSRLPHTFGQGTKVEIK | 3.9 nM | 53100 M⁻¹ s⁻¹ | 0.00515 nM | 1e-06 s⁻¹ | 194000 M⁻¹ s⁻¹ |  | 0.000207 s⁻¹ | 
VRDN-02566 (antibody, V domains shown) VH: EVQLVQSGGGLVKPGGSLRLSCAASGFTFSSFAMHWVRQAPGKGLEWISVIDTRGATYYADSVKGRFTISRDNAKNSLYLQMNSLRAEDTAVYYCHRLGNFYYGHDVWGQGTTVTVSS VL: EIVLTQSPGTLSVSPGERATLSCRASQSIGSSLHWYQQKPGQAPRLLIKYASQSLSGIPDRFSGSGSGTDFTLTISRLEPEDFAVYYCHQSSRLPHTFGQGTKVEIK | 3 nM | 2.95e+06 M⁻¹ s⁻¹ | 17.4 nM | 0.0197 s⁻¹ | 1.14e+06 M⁻¹ s⁻¹ |  | 0.00885 s⁻¹ | 
VRDN-02512 (antibody, V domains shown) VH: EVQLVQSGGGLVKPGGSLRLSCAASGFTFSSFAMHWVRQAPGKGLEWISVIDTHGATYYADSVKGRFTISRDNAKNSLYLQMNSLRAEDTAVYYCARLGNFYYGMDVWGQGTTVTVSS VL: EIVLTQSPGTLSVSPGERATLSCRASQSIGSSLHWYQQKPGQAPRLLIKYASQSLSGIPDRFSGSGSGTDFTLTISRLEPEDFAVYYCHQSSRLPHTFGQGTKVEIK | 1.2 nM | 32900 M⁻¹ s⁻¹ | 6.08 nM | 0.000271 s⁻¹ | 44600 M⁻¹ s⁻¹ |  | 3.96e-05 s⁻¹ | 
VRDN-02511 (antibody, V domains shown) VH: EVQLVQSGGGLVKPGGSLRLSCAASGFTFSSFAMHWVRQAPGKGLEWISVIDHRGATYYADSVKGRFTISRDNAKNSLYLQMNSLRAEDTAVYYCARLGNFYYGMDVWGQGTTVTVSS VL: EIVLTQSPGTLSVSPGERATLSCRASQSIGSSLHWYQQKPGQAPRLLIKYASQSLSGIPDRFSGSGSGTDFTLTISRLEPEDFAVYYCHQSSRLPHTFGQGTKVEIK | 4.28 nM | 157000 M⁻¹ s⁻¹ | 41.6 nM | 0.0319 s⁻¹ | 766000 M⁻¹ s⁻¹ |  | 0.000672 s⁻¹ | 

— US20240343814A1
